Assay results: the supplement of paper PMC12042874
± gives the uncertainty stated by the source.

Experiment: amyloid nucleation score (Sup35N fusion, yeast selection) (log enrichment); library NNK1; higher = more nucleation; inactive = no reads after selection
Outline: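 The nucleation score, computed with DiMSum, is the log enrichment of output over input reads, centred on the mode score of non-aggregating sequences. Sequences with under 100 input reads were dropped. Reads were generated by Illumina sequencing of plasmid inserts from psi-negative yeast with Sup35N fused to peptides of 20 random codons, induced with 100 μM copper sulfate for 24 hours and grown 7 days at 30°C on medium lacking adenine and uracil.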

Row | Substance | amyloid nucleation score
1 | FVVVHRSASGPEIQFLKGGR | -0.684 ± 0.4
2 | ILYVNNFIFLH | 7.59 ± 0.056
3 | GSEFQVLSFF | 0.419 ± 0.58
4 | HKRAEKHNHFITWSIQSLRA | 0.653 ± 0.33
5 | ILTRVV | 0.37 ± 1.1
6 | EVFRRSLGTTDAVGPKHDAQ | 2.39 ± 0.17
7 | NISPISYKIVVTIYSYFWLS | 0.452 ± 0.4
8 | SVNKSSKVFTELANVHERAL | 0.136 ± 0.66
9 | YKSVLHSSRSGGAYGVVKSL | -0.038 ± 0.45
10 | SFARVWVWSACA | -0.559 ± 0.49
11 | TVLVYRGFTEGCSHFSWPSN | 0.302 ± 0.8
12 | KGQSRHVSECVGWVSNVASL | 0.461 ± 0.73
13 | FTAVK | -0.188 ± 0.46
14 | IVEGVPGTRPHVLAKCSDEC | 0.232 ± 0.3
15 | FMGVINGEITLVNSFVTYMR | 7.768 ± 0.051
16 | VNRYEVPLLGRRHDCEFSRT | -0.806 ± 1.1
17 | MMGIMYLWTWYCN | 0.385 ± 0.58
18 | LEILL | 0.145 ± 0.45
19 | IAVKQFSRPPVFYIYSSLEC | 0.642 ± 0.62
20 | HMLIFYSGLCKPSFVYYLLY | 1.04 ± 0.58
21 | GRGTGAVFVYVEWSLYGN | -0.036 ± 0.47
22 | CWVYDGRIYPHL | 1.05 ± 0.85

Row | Substance | amyloid nucleation score
23 | EFIIAWVWRLHNWVSGFRHS | 0.343 ± 0.35
24 | GHGALSCMMNFHSTGGKVKS | 0.667 ± 0.68
25 | GYACTFVLA | 0.136 ± 0.51
26 | IRQQFKCYGEFCATM | -0.587 ± 1.2
27 | KRLHRGCWEVGSRGSLKLVN | -1.14 ± 1.6
28 | ELGSGFQFVYSYS | -0.465 ± 0.46
29 | IRLTILLSKVDTDE | 0.885 ± 0.42
30 | ELVYRMESIFCSELRVLGKF | 4.14 ± 0.15
31 | SNWYRPTDAARLSLSYSRGG | -0.883 ± 1.1
32 | TSWGNVDGCYNGRTLVLLDF | -0.316 ± 0.67
33 | DGSVYTPVIVY | 0.207 ± 0.29
34 | VARHISAVSAWGACYRWCFR | 0.706 ± 0.51
35 | FVMLFRFRVVCRFV | inactive
36 | VNKRISGTLHDTYEGDLCL | -0.418 ± 0.75
37 | YTCLHGGSGVPPYLFQEHYS | 0.193 ± 0.39
38 | AISDFMGHS | -0.825 ± 1.1
39 | FCNLYGKQTYLSGFGIHCVV | 0.127 ± 0.23
40 | DSSYKWWTYFWGA | -0.267 ± 0.42
41 | RKESDNDFSTCVTWQNRHPD | 0.529 ± 0.74
42 | LFPIDSVNGTDWMTRMRDKI | inactive
43 | MWEALW | 0.601 ± 0.54
44 | DSGLSAMGMELRCYEYLVSW | 0.886 ± 1.1

Row | Substance | amyloid nucleation score
45 | LDETIQSNRDTHLCQFA | -0.29 ± 0.56
46 | QEINGKAQWSPIHSISTMAA | 0.33 ± 0.51
47 | IWYYSSAQLDCFPYNSTMQE | 0.8 ± 0.93
48 | IGFML | 1.69 ± 0.32
49 | MMGLY | -0.038 ± 0.32
50 | FDYPDGDVVVNKFDSDVCYR | 0.616 ± 0.84
51 | VSLHSRINTVSPRKGLGSYS | 0.275 ± 0.71
52 | LLNEDYTGHSCDPEGEDTR | 0.589 ± 0.52
53 | WLEYYYCMLHDELIS | 0.109 ± 0.29
54 | ANFAIFWSFYRGWCSFKIQS | 0.871 ± 0.5
55 | LSAEFGSMLRLLCH | inactive
56 | MTHAFLRWSYLFRNIWMHVF | 0.349 ± 1.2
57 | RSNPMTVMVSCLDEVVS | -0.536 ± 0.49
58 | SIGLC | 1.31 ± 0.76
59 | GVTLYRRGIFGMSL | 0.338 ± 0.66
60 | VVFRGAVREVQGSWESCILA | 0.676 ± 0.52
61 | YSRGGFGHWFQHSL | -0.482 ± 1.7
62 | MLSYVRIGSDQDVVWSDLQR | 2 ± 0.1
63 | RNWREVSYMIQVGW | -0.186 ± 0.29
64 | LSMRIQAQMIVAWPTKHPIL | 4.99 ± 0.12
65 | WINFMSQWDPLGRQYVWHIQ | 1.81 ± 0.36
66 | AKSELHYSRFYFTLGVMKSL | -0.138 ± 0.48

Row | Substance | amyloid nucleation score
67 | GRHRRSRRM | inactive
68 | RVVPGGRLRYVNMVF | 1.26 ± 0.67
69 | LDRSTSSLIMSSCLMYRESS | 1.33 ± 0.29
70 | CFQPWKNLKAY | -0.67 ± 0.68
71 | DVVLVYGTITGSWVQSVWEG | 0.553 ± 0.69
72 | GSRNCIWLFFVVWV | inactive
73 | LGMIADYQKQKMMSSGTSLR | 0.289 ± 0.69
74 | GHSDFYTTPLKLCRGE | 0.634 ± 0.72
75 | IRFFKCLTCVSDCGN | inactive
76 | IVNVAGNV | 0.803 ± 0.45
77 | NSHHKKGHVKRAVRLLHYPV | 0.799 ± 0.84
78 | LPDCINNVQNGYSKLSEGLS | 0.792 ± 1
79 | HYSNVKTGGKSGKWEIRDLE | -0.559 ± 0.35
80 | ISGIECQYTNGRRWGPPS | -0.323 ± 0.81
81 | EEGDAAGVVILNMQRSYG | -0.427 ± 0.41
82 | SYKSWQ | 0.978 ± 0.43
83 | LTLFLCISRLPGTPTLYWVL | 0.752 ± 0.62
84 | LYAWGVRYSVVMLFSYRGVH | -0.026 ± 1.2
85 | DVISLTHVEKSWLVSLWKRS | -0.045 ± 0.69
86 | LVWVS | 0.134 ± 0.65
87 | YIIVFDVNWFVKFGCFPRGS | inactive
